Each block holds one binder with its values, some of them ahead of it.
B2: Delta-like 1 (Dll1) (ligand, UniProt P97677 18-714, looked up)
chain: QVWSSGVFELKLQEFVNKKGLLGNRNCCRGGSGPPCACRTFFRVCLKHYQASVSPEPPCTYGSAVTAVLGVDSFSLPDGAGIDPAFSNPIRFPFGFTWPGTFSLIIEALHTDSPDDLATENPERLISRLTTQRHLTVGEEWSQDLHSSGRTDLRYSYRFVCDEHYYGEGCSVFCRPRDDAFGHFTCGERGEKMCDPGWKGQYCTDPICLPGCDDQHGYCDKPGECKCRVGWQGRYCDECIRYPGCLHGTCQQPWQCNCQEGWGGLFCNQDLNYCTHHKPCRNGATCTNTGQGSYTCSCRPGYTGANCELEVDECAPSPCRNGGSCTDLEDSYSCTCPPGFYGKVCELSAMTCADGPCFNGGRCSDNPDGGYTCHCPAGFSGFNCEKKIDLCSSSPCSNGAKCVDLGNSYLCRCQTGFSGRYCEDNVDDCASSPCANGGTCRDSVNDFSCTCPPGYTGRNCSAPVSRCEHAPCHNGATCHQRGQRYMCECAQGYGGANCQFLLPEPPPDLIVAAQGGSFPWVAVCAGVVLVLLLLLGCAAVVVCVRLKLQKHQPPPDPCGGETETMNNLANCQREKDVSVSIIGATQIKNTNKKADFHGDHGADKSSFKARYPTVDYNLIRDLKGDEATVRDAHSKRDTKCQSQGSVGEEKSTSTLRGGEVPDRKRPESVYSTSKDTKYQSVYVLSAEKDECVIATEV
B3: epsin1-Venus (natural protein, rat, UniProt O88339 1-575, looked up)
chain: MSTSSLRRQMKNIVHNYSEAEIKVREATSNDPWGPSSSLMSEIADLTYNVVAFSEIMSMIWKRLNDHGKNWRHVYKAMTLMEYLIKTGSERVSQQCKENMYAVQTLKDFQYVDRDGKDQGVNVREKAKQLVALLRDEDRLREERAHALKTKEKLAQTATASSAAVGSGPPPEAEQAWPQSSGEEELQLQLALAMSKEEADQPPSCGPEDDVQLQLALSLSREEHDKEERIRRGDDLRLQMAIEESKRETGGKEESSLMDLADVFTTPAPPQASDPWGGPASVPTAVPVAAAASDPWGAPAVPPAADPWGGAAPTPASGDPWRPAAPTGPSVDPWGGTPAPAAGEGPTSDPWGSADGGAPVSGPPSSDPWAPAPAFSDPWGGSPAKPSSNGTAVGGFDTEPDEFSDFDRLRTALPTSGSSTGELELLAGEVPARSPGAFDMSGVGGSLAESVGSPPPAATPTPTPPTRKTPESFLGPNAALVDLDSLVSRPGPTPPGAKASNPFLPSGAPATGPSVTNPFQPAPPATLTLNQLRLSPVPPVPGAPPTYISPLGGGPGLPPMMPPGPPAPNTNPFLL

Columns and labels:
Assay in all cases: co-IP
Myc-epsin1 = molecular target: T1, Myc-epsin1 (UniProt O88339 1-575)
T1 sequence (looked up): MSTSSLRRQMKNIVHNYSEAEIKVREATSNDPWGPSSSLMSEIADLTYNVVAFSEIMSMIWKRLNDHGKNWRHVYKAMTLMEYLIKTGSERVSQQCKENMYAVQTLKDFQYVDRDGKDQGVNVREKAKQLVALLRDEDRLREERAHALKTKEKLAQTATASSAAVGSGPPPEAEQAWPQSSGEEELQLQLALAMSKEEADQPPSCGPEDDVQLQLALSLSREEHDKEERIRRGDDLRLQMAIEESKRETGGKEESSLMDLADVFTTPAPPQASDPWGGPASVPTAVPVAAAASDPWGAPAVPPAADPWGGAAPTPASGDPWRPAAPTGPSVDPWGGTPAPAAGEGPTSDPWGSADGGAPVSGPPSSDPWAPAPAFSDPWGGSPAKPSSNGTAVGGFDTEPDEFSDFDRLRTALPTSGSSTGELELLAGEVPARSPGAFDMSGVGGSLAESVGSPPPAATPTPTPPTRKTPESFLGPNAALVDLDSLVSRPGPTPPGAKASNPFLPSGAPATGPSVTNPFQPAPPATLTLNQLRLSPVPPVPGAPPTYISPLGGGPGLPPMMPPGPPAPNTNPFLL

epsin1-Venus = molecular target: B3
Delta-like 1 (Dll1) = molecular target: B2

fold decrease of the co-IP with PAR-1T560A-eGFP (Myc-epsin1): 2 fold
B1: Dll1 expressed in 293T cells (ligand, UniProt P97677 18-714, looked up)
chain: QVWSSGVFELKLQEFVNKKGLLGNRNCCRGGSGPPCACRTFFRVCLKHYQASVSPEPPCTYGSAVTAVLGVDSFSLPDGAGIDPAFSNPIRFPFGFTWPGTFSLIIEALHTDSPDDLATENPERLISRLTTQRHLTVGEEWSQDLHSSGRTDLRYSYRFVCDEHYYGEGCSVFCRPRDDAFGHFTCGERGEKMCDPGWKGQYCTDPICLPGCDDQHGYCDKPGECKCRVGWQGRYCDECIRYPGCLHGTCQQPWQCNCQEGWGGLFCNQDLNYCTHHKPCRNGATCTNTGQGSYTCSCRPGYTGANCELEVDECAPSPCRNGGSCTDLEDSYSCTCPPGFYGKVCELSAMTCADGPCFNGGRCSDNPDGGYTCHCPAGFSGFNCEKKIDLCSSSPCSNGAKCVDLGNSYLCRCQTGFSGRYCEDNVDDCASSPCANGGTCRDSVNDFSCTCPPGYTGRNCSAPVSRCEHAPCHNGATCHQRGQRYMCECAQGYGGANCQFLLPEPPPDLIVAAQGGSFPWVAVCAGVVLVLLLLLGCAAVVVCVRLKLQKHQPPPDPCGGETETMNNLANCQREKDVSVSIIGATQIKNTNKKADFHGDHGADKSSFKARYPTVDYNLIRDLKGDEATVRDAHSKRDTKCQSQGSVGEEKSTSTLRGGEVPDRKRPESVYSTSKDTKYQSVYVLSAEKDECVIATEV

Binder: B2
fold increase of the co-IP, cells on N1Fc- against Fc-coated dishes (epsin1-Venus): 1.9 fold

Binder: B3
fold increase of the co-IP, cells on N1Fc- against Fc-plates (Delta-like 1 (Dll1)): 1.8 fold

Source: publication PMC3400432 (Developmental Cell, 2012)
